Test results: US20240400715A1 (VIBRANT PHARMA, published 2024)
Substitutions are numbered along the chain they refer to.

B1: 308 (TA3), configuration of FIG. 1X (bispecific antibody)
heavy: EVQLVESGGGLVQPGGSLRLSCAASGYSFTGYTMNWVRQAPGKGLEWVALINPYKGVSTYNQKFKDRFTISVDKSKNTAYLQMNSLRAEDTAVYYCARSGYYGDSDWYFDVWGQGTLVTVSSASTKGPSVFPLAPCSRSTSESTAALGCLVKDYFPEPVTVSWNSGALTSGVHTFPAVLQSSGLYSLSSVVTVPSSSLGTKTYTCNVDHKPSNTKVDKRVESKYGPPCPPCPAPEAAGGPSVFLFPPKPKDTLMISRTPEVTCVVVDVSQEDPEVQFNWYVDGVEVHNAKTKPREEQFNSTYRVVSVLTVLHQDWLNGKEYKCKVSNKGLPSSIEKTISKAKGQPREPQVYTLPPCQEEMTKNQVSLWCLVKGFYPSDIAVEWESNGQPENNYKTTPPVLDSDGSFFLYSRLTVDKSRWQEGNVFSCSVMHEALHNHYTQKSLSLSLGGGGSGGGGSEVQLVESGGGFVQAGESLTLSCTSSTLTFTPYRMAWYRQAPGKQRDLVADISSGDGRTTNYADFAKGRFTISRDNIKNTVFLRMTNLKPEDTAVYYCNTFVSFVGIARSWGQGTQVTVSS
chain: ESKYGPPCPPCPAPEAAGGPSVFLFPPKPKDTLMISRTPEVTCVVVDVSQEDPEVQFNWYVDGVEVHNAKTKPREEQFNSTYRVVSVLTVLHQDWLNGKEYKCKVSNKGLPSSIEKTISKAKGQPREPQVCTLPPSQEEMTKNQVSLSCAVKGFYPSDIAVEWESNGQPENNYKTTPPVLDSDGSFFLVSRLTVDKSRWQEGNVFSCSVMHEALHNRFTQKSLSLSL
light: DIQMTQSPSSLSASVGDRVTITCRASQDIRNYLNWYQQKPGKAPKLLIYYTSRLESGVPSRFSGSGSGTDYTLTISSLQPEDFATYYCQQGNTLPWTFGQGTKVEIK
notes: not shown: kappa light chain constant domain (CL)
B2: 310 (TA5), configuration of FIG. 1X (bispecific antibody)
heavy: DVQLVQSGAEVKKPGASVKVSCKASGYTFTRYTMHWVRQAPGQGLEWIGYINPSRGYTNYADSVKGRFTITTDKSTSTAYMELSSLRSEDTATYYCARYYDDHYCLDYWGQGTTVTVSSASTKGPSVFPLAPCSRSTSESTAALGCLVKDYFPEPVTVSWNSGALTSGVHTFPAVLQSSGLYSLSSVVTVPSSSLGTKTYTCNVDHKPSNTKVDKRVESKYGPPCPPCPAPEAAGGPSVFLFPPKPKDTLMISRTPEVTCVVVDVSQEDPEVQFNWYVDGVEVHNAKTKPREEQFNSTYRVVSVLTVLHQDWLNGKEYKCKVSNKGLPSSIEKTISKAKGQPREPQVYTLPPCQEEMTKNQVSLWCLVKGFYPSDIAVEWESNGQPENNYKTTPPVLDSDGSFFLYSRLTVDKSRWQEGNVFSCSVMHEALHNHYTQKSLSLSLGGGGSGGGGSEVQLVESGGGFVQAGESLTLSCTSSTLTFTPYRMAWYRQAPGKQRDLVADISSGDGRTTNYADFAKGRFTISRDNIKNTVFLRMTNLKPEDTAVYYCNTFVSFVGIARSWGQGTQVTVSS
chain: B1 chain
light: DIVLTQSPATLSLSPGERATLSCRASQSVSYMNWYQQKPGKAPKRWIYDTSKVASGVPARFSGSGSGTDYSLTINSLEAEDAATYYCQQWSSNPLTFGGGTKVEIK
notes: VL row printed 'TAS VL', read as TA5 VL; full chains assembled from parts; not shown: kappa light chain constant domain (CL)
B3: 311 (TA6), configuration of FIG. 1X (bispecific antibody)
heavy: EVQLVQSGAEVKKPGASVKVSCKASGYTFTNYYIHWVRQAPGQGLEWIGWIYPGDGNTKYNEKFKGRATLTADTSTSTAYLELSSLRSEDTAVYYCARDSYSNYYFDYWGQGTLVTVSSASTKGPSVFPLAPCSRSTSESTAALGCLVKDYFPEPVTVSWNSGALTSGVHTFPAVLQSSGLYSLSSVVTVPSSSLGTKTYTCNVDHKPSNTKVDKRVESKYGPPCPPCPAPEAAGGPSVFLFPPKPKDTLMISRTPEVTCVVVDVSQEDPEVQFNWYVDGVEVHNAKTKPREEQFNSTYRVVSVLTVLHQDWLNGKEYKCKVSNKGLPSSIEKTISKAKGQPREPQVYTLPPCQEEMTKNQVSLWCLVKGFYPSDIAVEWESNGQPENNYKTTPPVLDSDGSFFLYSRLTVDKSRWQEGNVFSCSVMHEALHNHYTQKSLSLSLGGGGSGGGGSEVQLVESGGGFVQAGESLTLSCTSSTLTFTPYRMAWYRQAPGKQRDLVADISSGDGRTTNYADFAKGRFTISRDNIKNTVFLRMTNLKPEDTAVYYCNTFVSFVGIARSWGQGTQVTVSS
chain: B1 chain
light: DIVMTQSPDSLAVSLGERATINCKSSQSLLNSRTRKNYLAWYQQKPGQPPKLLIYWASTRESGVPDRFSGSGSGTDFTLTISSLQAEDVAVYYCTQSFILRTFGQGTKVEIK
notes: as for B1
B4: 312 (TA7), configuration of FIG. 1X (bispecific antibody)
heavy: B3 heavy with Y27F, N31S, G54E, D55N, G56D, G66D, A68V, L70I, S100G, N103R
chain: B1 chain
light: B3 light with P49S, A57T, E61K, T95K
notes: as for B1
B5: EGFR-CD3 bispecific antibody 401 (bispecific antibody, human IgG4 S228P, kappa, F234A L235A)
heavy: EVKLLESGGGLVQPKGSLKLSCAASGFTFNTYAMNWVRQAPGKGLEWVARIRSKYNNYATYYADSVKDRFTISRDDSQSILYLQMNNLKTEDTAMYYCVRHGNFGNSYVSWFAYWGQGTLVTVSSASTKGPSVFPLAPCSRSTSESTAALGCLVKDYFPEPVTVSWNSGALTSGVHTFPAVLQSSGLYSLSSVVTVPSSSLGTKTYTCNVDHKPSNTKVDKRVESKYGPPCPPCPAPEAAGGPSVFLFPPKPKDTLMISRTPEVTCVVVDVSQEDPEVQFNWYVDGVEVHNAKTKPREEQFNSTYRVVSVLTVLHQDWLNGKEYKCKVSNKGLPSSIEKTISKAKGQPREPQVYTLPPCQEEMTKNQVSLWCLVKGFYPSDIAVEWESNGQPENNYKTTPPVLDSDGSFFLYSRLTVDKSRWQEGNVFSCSVMHEALHNHYTQKSLSLSL
chain: QVQLQESGGGSVQAGGSLKLSCAASGRGFSRYAMGWFRQAPGQDREFVATISWTNSTDYADSVKGRFAISRDNAKNTAYLQMNSLKPEDTAVYYCAADKWASSTRSIDYDYWGQGIQVTVSSESKYGPPCPPCPAPEAAGGPSVFLFPPKPKDTLMISRTPEVTCVVVDVSQEDPEVQFNWYVDGVEVHNAKTKPREEQFNSTYRVVSVLTVLHQDWLNGKEYKCKVSNKGLPSSIEKTISKAKGQPREPQVCTLPPSQEEMTKNQVSLSCAVKGFYPSDIAVEWESNGQPENNYKTTPPVLDSDGSFFLVSRLTVDKSRWQEGNVFSCSVMHEALHNRFTQKSLSLSL
light: QAVVTQESALTTSPGETVTLTCRSSTGAVTTSNYANWVQEKPDHLFTGLIGGTNKRAPGVPARFSGSLIGDKAALTITGAQTEDEAIYFCALWYSNLWVFGGGTKVEIKRTVAAPSVFIFPPSDEQLKSGTASVVCLLNNFYPREAKVQWKVDNALQSGNSQESVTEQDSKDSTYSLSSTLTLSKADYEKHKVYACEVTHQGLSSPVTKSFNRGEC
notes: VHH-hole chain assembled from VHH and hole-Fc with hinge
B6: EGFR-CD3 bispecific antibody 404 (bispecific antibody, human IgG4 S228P, kappa, F234A L235A)
chain: B5 chain with C253Y, S258C, S270W, A272L, V311Y, R339H, F340Y
heavy: B5 heavy with Y354C, C359S, W371S, L373A, Y412V, H440R, Y441F
light: B5 light
notes: VHH-knob chain assembled from VHH and knob-Fc with hinge

The binders below were run against T1, human CD3ε/δ (ACRO systems, CDD-H52W1) (human, UniProt P07766 23-126; P04234 22-105) (assay: serum-stability ELISA, Day 7 vs Day 0).
T1 construct: bought recombinant heterodimer; also called human CD3 epsilon/delta; Human CD3ε/CD3δ
Protocol: (§1) The samples to be tested were centrifuged at 4° C. at 12000 rpm for 30 minutes to remove the precipitate. 200 μl of each sample to be tested (0.5 mg/ml) was collected in a 1.5 ml Eppendorf tube. An equal volume of human serum (GEMINI, H2OYOOK) was added, mixed thoroughly, and the mixture was incubated in a 37° C. constant temperature CO₂ incubator. For a total of 10 days, 40 μl samples was aspirated every day and stored at −20° C.
(§2) Enzyme-linked immunosorbent assay (ELISA) was used to test the bispecific antibodies' binding to human CEA and human CD3 epsilon/delta antigen. The steps are as follows: the antigen human CD3ε/δ (ACRO systems, CDD-H52W1) and the recombinant tumor antigen human CEA (CEACAM-5/CD66e, ACRO systems, CE5-H5226) were diluted to 1 μg/ml with PBS, and then added to the 96-well plate at 100 μl per well. The wells were coated overnight at 4° C. After washing 3 times with 0.05% PBST, 200 μl 5% skimmed milk powder was added to each well and incubated at 37° C. for 2 h. After washing 3 times with 0.05% PBST, 100 μl primary antibody sample (10 μg/ml) was added to each well, and incubated at 37° C. for 2 h. After washing 3 times with 0.05% PBST, 100 μl (1:6000) diluted secondary antibody goat anti-human Fc-HRP (sigma, A2170) was added to each well, incubated at room temperature for 1 h. After washing 8 times with 0.05% PBST, 50 μl TMB color developing solution was added to each well, and incubated at room temperature for 10-15 min. 50 μl 1 mM HCl was added to each well to stop the color development. 450 nm Absorbance (OD) was read.
(§3) The binding of antibodies to antigen was calculated according to the following formula: Binding (%)=[(ODdayn−ODb)/(ODday0−ODb)]×100%. ODdayn: experimental well (the protein was stored in the serum for n days); ODday0: control well (the protein was not stored in the serum); ODb: blank well (no primary antibody added).
Binder B1 has a Binding % of 109%.
For B2, the Binding % was 89.2%.
B3 was tested, and the Binding % was 101%.
B4 showed a Binding % of 98.2%.

The binders below were run against T2, recombinant tumor antigen human EGFR (ACRO systems, EGR-H5222) (human, UniProt P00533 25-645) (assay: BLI, antibody captured on AHC sensor, 30 C).
T2 construct: bought recombinant protein
Description: After the chip captures the bispecific antibodies, it was allowed to bind and dissociate with different concentrations of analytes to obtain the KD value of the interaction. The experimental parameters are as follows: Baseline1: 60s, Loading: 240s, Baseline2: 180s, Association: 240s, Dissociation: 600s, Loading Response: 1.9-2.1 (nm), High sensitivity kinetics: 2 Hz. Kinetic constants were derived based on 1:1 Langmuir binding to obtain equilibrium dissociation constants (KD).
With B5 the Kd was 2.07 nM, the koff was 0.00201 s⁻¹ and the kon was 969000 M⁻¹ s⁻¹.
In the case of B6, the Kd is reported as 2.2 nM, the koff is reported as 0.00238 s⁻¹ and the kon is reported as 1.08e+06 M⁻¹ s⁻¹.

Each binder was assayed against T1, human CD3ε/δ (ACRO systems, CDD-H52W1) (assay: BLI, antibody captured on AHC sensor, 30 C).
B5 was tested, and the Kd was 2.71 nM, the koff was 0.000491 s⁻¹ and the kon was 181000 M⁻¹ s⁻¹.
B6 gave a Kd of 2.65 nM, a koff of 0.000469 s⁻¹ and a kon of 177000 M⁻¹ s⁻¹.

These binders were tested against T1, human CD3ε/δ (ACRO systems, CDD-H52W1) (assay: serum-stability ELISA, Day 1 vs Day 0).
Protocol: as §1, §2, §3
Work on B1 yielded a Binding % of 106%.
With B2 the Binding % was 96.1%.
With B3 the Binding % was 105%.
For B4, the Binding % was 103%.

The binders below were run against T1, human CD3ε/δ (ACRO systems, CDD-H52W1) (assay: serum-stability ELISA, Day 9 vs Day 0).
Protocol: as §1, §2, §3
In the case of B1, the Binding % is reported as 110%.
B2 was tested, and the Binding % was 90.3%.
B3 was tested, and the Binding % was 100%.
In the case of B4, the Binding % is reported as 101%.

These binders were tested against T1, human CD3ε/δ (ACRO systems, CDD-H52W1) (assay: serum-stability ELISA, Day 10 vs Day 0).
Protocol: as §1, §2, §3
Work on B1 yielded a Binding % of 103%.
B2 showed a Binding % of 101%.
B3 gave a Binding % of 101%.
B4 was tested, and the Binding % was 104%.

The binders below were run against T1, human CD3ε/δ (ACRO systems, CDD-H52W1) (assay: serum-stability ELISA, Day 5 vs Day 0).
Protocol: as §1, §2, §3
Binder B1 has a Binding % of 107%.
In the case of B2, the Binding % is reported as 92.2%.
B3 was tested, and the Binding % was 103%.
With B4 the Binding % was 104%.

The binders below were run against T1, human CD3ε/δ (ACRO systems, CDD-H52W1) (assay: serum-stability ELISA, Day 0 (reference)).
B1 was tested, and the Binding % was 100%.
For B2, the Binding % was 100%.
In the case of B3, the Binding % is reported as 100%.
In the case of B4, the Binding % is reported as 100%.

Each binder was assayed against T1, human CD3ε/δ (ACRO systems, CDD-H52W1) (assay: serum-stability ELISA, Day 6 vs Day 0).
Protocol: as §1, §2, §3
In the case of B1, the Binding % is reported as 103%.
B2 was tested, and the Binding % was 93.2%.
Binder B3 has a Binding % of 104%.
B4 showed a Binding % of 102%.

These binders were tested against T1, human CD3ε/δ (ACRO systems, CDD-H52W1) (assay: serum-stability ELISA, Day 2 vs Day 0).
Protocol: as §1, §2, §3
In the case of B1, the Binding % is reported as 100%.
B2 showed a Binding % of 90.2%.
B3 was tested, and the Binding % was 105%.
Work on B4 yielded a Binding % of 106%.
